According to patent publication US20260265357A1 (NEPHRIS, published 2026):
Substitutions are numbered along the chain they refer to.

T1: human NBL1 (neuroblastoma suppressor of tumorigenicity 1) (human, UniProt P41271 17-181, limits assumed)
T1 construct: Recombinant human NBL1; also called DAN; DAND1
T1 sequence (looked up): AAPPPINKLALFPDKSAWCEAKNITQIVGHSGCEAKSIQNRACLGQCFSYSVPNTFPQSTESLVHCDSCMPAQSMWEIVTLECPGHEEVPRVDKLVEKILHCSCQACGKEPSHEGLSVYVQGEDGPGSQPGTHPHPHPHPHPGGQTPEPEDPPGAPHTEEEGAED

T2: mouse NBL1 (mouse, UniProt Q61477 17-178, limits assumed)
T2 sequence (looked up): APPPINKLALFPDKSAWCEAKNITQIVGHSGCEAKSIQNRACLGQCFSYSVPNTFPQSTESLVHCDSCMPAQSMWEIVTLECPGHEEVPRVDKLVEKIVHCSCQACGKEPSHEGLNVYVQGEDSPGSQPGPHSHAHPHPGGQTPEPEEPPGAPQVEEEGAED

B1: Antibody YU1018-E04 (antibody, V domains shown)
VH: QVQLVQSGAEVKKPGESLKISCKGSGYSFTSYWIGWVRQMPGKGLEWMGIIYPGDSDTRYSPSFQGQVTISADKSISTAYLQWSSLKASDTAMYYCARAIVGATSGYWFDPWGQGTLVTVSS
VL: not shown
B2: Antibody YU1018-D12 (antibody, V domains shown)
VH: EVQLVQSGAEVKKPGASVKVSCKASGYTFTSYGISWVRQAPGQGLEWMGWISAYNGNTNYAQKLQGRVTMTTDTSTSTAYMELRSLRSDDTAVYYCARDVGYSYGIFDYWGQGTLVTVSS
VL: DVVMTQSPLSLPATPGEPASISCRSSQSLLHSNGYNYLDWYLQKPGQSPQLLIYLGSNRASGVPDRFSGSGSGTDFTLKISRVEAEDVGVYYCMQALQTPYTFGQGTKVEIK
B3: Antibody YU1018-E01 (antibody, V domains shown)
VH: QVQLVQSGAEVKKPGASVKVSCKASGYTFTSYGISWVRQAPGRGLEWMGWISAYNGNTNYAQKLQGRVTMTTDTSTSTAYMELRSLRSDDTAVYYCARGPRDGYNDYWGQGTLVTVSS
VL: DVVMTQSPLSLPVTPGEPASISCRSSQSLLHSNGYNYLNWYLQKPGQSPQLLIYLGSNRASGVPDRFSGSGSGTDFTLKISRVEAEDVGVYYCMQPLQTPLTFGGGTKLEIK
B4: Antibody YU1019-B06 (antibody, V domains shown)
VH: EVQLLESGGGVVQPGRSLRLSCAASGFTFSSYAMHWVRQAPGKGLEWVAVISYDGSNKYYADSVKGRFTISRDNSKNTLYLQMNSLRAEDTAVYYCASPVLRYFDWLPNYWGQGTLVTVSS
VL: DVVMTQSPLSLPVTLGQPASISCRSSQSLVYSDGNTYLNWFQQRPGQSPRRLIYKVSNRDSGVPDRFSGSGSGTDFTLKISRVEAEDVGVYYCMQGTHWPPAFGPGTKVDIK
B5: Antibody YU1018-E07 (antibody, V domains shown)
VH: B4 VH with L116T
VL: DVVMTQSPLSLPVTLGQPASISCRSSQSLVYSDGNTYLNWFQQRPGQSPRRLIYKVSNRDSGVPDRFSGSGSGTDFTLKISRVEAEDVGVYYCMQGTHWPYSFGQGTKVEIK
B6: Antibody YU1018-D08 (antibody, V domains shown)
VH: QVQLVQSGAEVKKPGSSVKVSCKASGGTFSSYAISWVRQAPGQGLEWMGGIIPIFGTANYAQKFQGRVTITADKSTSTAYMELSSLRSEDTAVYYCARDRYYDSSGYYLMDPWGQGTLVTVSS
VL: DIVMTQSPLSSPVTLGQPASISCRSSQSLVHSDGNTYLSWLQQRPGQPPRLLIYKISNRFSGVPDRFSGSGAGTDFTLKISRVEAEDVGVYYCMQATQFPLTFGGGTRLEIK
B7: Antibody YU1018-G01 (antibody, V domains shown)
VH: QVQLVQSGAEVKKPGASVKVSCKASGYTFTSYAMHWVRQAPGQRLEWMGWINAGNGNTKYSQKFQGRVTITRDTSASTAYMELSSLRSEDTAVYYCARGRELLTFDYWGQGTLVTVSS
VL: not shown
B8: Antibody YU1019-A12 (antibody, V domains shown)
VH: EVQLLESGPGLVKPSQTLSLTCTVSGGSISSGDYYWSWIRQPPGKGLEWIGYIYYSGSTYYNPSLKSRVTISVDTSKNQFSLKLSSVTAADTAVYYCARGRRLLLFHWGQGTTVTVSS
VL: QSVLTQPPSVSAAPGQKVTISCSGSGSSIGNNYVSWYQQVPGTPPKLLIYDNNKRASGIPDRFSGSKSGTSATLGITGLQTGDEADYYCGTWDNSLSAVVFGGGTKLTVL
B9: Antibody YU1018-D06 (antibody, V domains shown)
VH: QVQLVESGPGLVKPSQTLSLTCTVSGGSISSGGYYWSWIRQHPGKGLEWIGYIYYSGSTYYNPSLKSRVTISVDTSKNQFSLKLSSVTAADTAVYYCARSGAAGIPWFDPWGQGTLVTVSS
VL: B8 VL with G26S, S28N, V40L, P44A, D51E, K54E, A56P, F63L, G75A, N94S

molecular target: T1, human NBL1 (neuroblastoma suppressor of …); assay: ELISA, IgG1 format
Method: (§1) Naïve human phage display libraries were panned to discover Fabs capable of binding human NBL1 (UniProt ID P41271), and further screened for potential inter species cross reactivity to mouse NBL1 (UniProt ID Q61477) and/or cynomolgus (“cyno”) NBL1 (UniProt ID A0A2K5WIY3). […] Antigen binding of the IgG1 formatted antibodies was tested by ELISA and EC50 values were calculated.

Binding result, binds:
B1
B2
B3
B4
B5
B6
B7
B8
B9

molecular target: T2, mouse NBL1; assay: ELISA, IgG1 format
Method: as §1

Binding result, binds:
B1
B2
B3
B4
B5
B6
B7
B8
B9
